T1: MRJP1_4/apisimin4 hetero-octamer (native royal jelly filament) (Apis mellifera, UniProt O18330+Q8ISL8)
T1 construct: gene Mrjp1; native, purified from commercial royal jelly (Bio-Gelee Royale) at pH 4.0; N-glycosylated (Asn28, Asn144, Asn177); signal peptides removed; N-termini NILRGE (MRJP1) and KTSISV (apisimin); model residues 20-431 of MRJP1 and 33-76 of apisimin; 4:4 hetero-octamers stacked into helical filaments
T1 sequence (O18330 20-432): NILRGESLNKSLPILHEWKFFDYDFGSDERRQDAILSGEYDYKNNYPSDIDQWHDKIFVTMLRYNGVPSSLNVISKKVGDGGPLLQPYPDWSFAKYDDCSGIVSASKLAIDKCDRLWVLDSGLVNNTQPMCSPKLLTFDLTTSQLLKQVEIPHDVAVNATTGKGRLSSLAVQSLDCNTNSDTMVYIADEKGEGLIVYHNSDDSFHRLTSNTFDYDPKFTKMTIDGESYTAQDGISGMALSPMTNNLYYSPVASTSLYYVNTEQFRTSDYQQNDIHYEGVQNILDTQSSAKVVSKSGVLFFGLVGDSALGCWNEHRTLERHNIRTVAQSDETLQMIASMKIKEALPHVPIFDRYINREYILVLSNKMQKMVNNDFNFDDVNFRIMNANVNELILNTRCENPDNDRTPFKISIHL
T1 sequence (Q8ISL8 25-78): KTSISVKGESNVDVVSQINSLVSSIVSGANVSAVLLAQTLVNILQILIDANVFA

B1: major royal jelly protein 1 (natural protein, Apis mellifera, UniProt O18330 20-432, looked up)
chain: T1 sequence (O18330 20-432)
modifications: N-linked glycans at Asn28, Asn144 and Asn177 (modelled: one NAG at Asn28, two NAG at Asn144, two NAG plus a BMA at Asn177)
notes: major royal jelly protein 1 (MRJP1), honeybee Apis mellifera, native glycoprotein from royal jelly; the final model holds residues 20-431; Native protein; in the filament it stands with apisimin, 24-methylenecholesterol and further unassigned lipids; also called MRJP1; MRPJ1; source: purified from commercially available royal jelly as RJ filaments (ammonium sulfate precipitation, SEC at pH 4.0)
B2: apisimin (natural protein, Apis mellifera, UniProt Q8ISL8 25-78, looked up)
chain: T1 sequence (Q8ISL8 25-78)
notes: apisimin, small (5 kDa) royal jelly protein, honeybee Apis mellifera, native; the final model holds residues 33-76; Native protein, co-purified with MRJP1 in the filaments; also called apimisin; source: purified from commercially available royal jelly as RJ filaments (ammonium sulfate precipitation, SEC at pH 4.0)

Key:
[1] = molecular target: T1, MRJP1_4/apisimin4 hetero-octamer (native royal jelly filament); test: cryo-EM helical reconstruction, […] A; format: binding; settings: pH 4.0; native co-purified lipid, 8 per MRJP1_4/apisimin4 unit; built starting from crystal structure PDB 5yyl
[2] = molecular target: the molecule itself; test: cryo-EM structure; real-space helical reconstruction of native RJ filaments purified at pH 4.0 (10 mM formic acid-NaOH pH 4.0, 150 mM NaCl), graphene oxide-coated grids, 3.5 Å
apisimin = molecular target: B2; test: quantitative Edman sequencing; purified RJ filaments (SEC fractions above 500 kDa, pH 4.0); six degradation cycles; molar ratio of the MRJP1 and apisimin residues; settings: both partners purified
[3] = molecular target: B1; test: cryo-EM structure; real-space helical reconstruction of native RJ filaments purified at pH 4.0 (10 mM formic acid-NaOH pH 4.0, 150 mM NaCl), graphene oxide-coated grids, 3.5 Å; settings: both partners purified

Row | Molecule | cryo-EM helical reconstruction, 3.5 A [1] | binding result [2] | stoichiometry N (apisimin) | binding result [3]
1 | C=C(CC[C@@H](C)[C@H]1CC[C@H]2[C@@H]3CC=C4C[C@@H](O)CC[C@]4(C)[C@H]3CC[C@]12C)C(C)C [24-methylenecholesterol] | Apisimin is colored in red, 24-methylenecholesterol in blue, and N-glycans in silver. |  |  | 
2 | B1 |  | binds | 1.15 ± 0.32 molar ratio MRJP1/apisimin | 
3 | B2 |  | binds |  | binds
